Measurements from article doi:10.1101/2021.12.02.471034.
Values joined by “and” are separate entries in the source; they are usually repeats but may differ in a detail not shown here. Equal entries are not always repeated.

B1: Heat shock factor 1 (Hsf1), Q00613 1-529 (natural protein)
chain: MDLPVGPGAAGPSNVPAFLTKLWTLVSDPDTDALICWSPSGNSFHVFDQGQFAKEVLPKYFKHNNMASFVRQLNMYGFRKVVHIEQGGLVKPERDDTEFQHPCFLRGQEQLLENIKRKVTSVSTLKSEDIKIRQDSVTKLLTDVQLMKGKQECMDSKLLAMKHENEALWREVASLRQKHAQQQKVVNKLIQFLISLVQSNRILGVKRKIPLMLNDSGSAHSMPKYSRQFSLEHVHGSGPYSAPSPAYSSSSLYAPDAVASSGPIISDITELAPASPMASPGGSIDERPLSSSPLVRVKEEPPSPPQSPRVEEASPGRPSSVDTLLSPTALIDSILRESEPAPASVTALTDARGHTDTEGRPPSPPPTSTPEKCLSVACLDKNELSDHLDAMDSNLDNLQTMLSSHGFSVDTSALLDLFSPSVTVPDMSLPDLDSSLASIQELLSPQEPPRPPEAENSSPDSGKQLVHYTAQPLFLLDPGSVDTGSNDLPVLFELGEGSYFSEGDGFAEDPTISLLTGSEPPKAKDPTVS

Columns and labels:
Test in all cases: SEC-MALS
[1] = target: Hsf1 CS mutant (C35S/C103S/C153S/C373S/C378S) (human) (UniProt Q00613)
[2] = target: T1, Heat shock factor 1 (Hsf1) (human), Q00613; conditions: remark: other sources report otherwise
T1 chain: B1 chain

[3] = target: T1, Heat shock factor 1 (Hsf1) (human), …; conditions: remark: other sources report otherwise

Molecule	stoichiometry N [1]	stoichiometry N [2]	stoichiometry N [3]
Hsf1 CS mutant (C35S/C103S/C153S/C373S/C378S) (from UniProt Q00613 1-529) (natural protein)	5	–	–
B1	–	7	9 and < 16
